In PMC12949252:

Tests used:
[1] = target: SEL1L-S658P-FLAG (mouse); assay: co-IP
[2] = target: SEL1L-G585D-FLAG (mouse); assay: co-IP

Molecule: HRD1 (endogenous, HEK293T) (from UniProt Q86TM6 1-617) (enzyme)
- percent reduction of binding against WT [1]: 70%

B1: OS9 (endogenous, HEK293T) (natural protein)
chain: GGVGSLNLEELSEMRYGIEILPLPVMGGQSQSSDVVIVSSKYKQRYECRLPAGAIHFQREREEETPAYQGPGIPELLSPMRDAPCLLKTKDWWTYEFCYGRHIQQYHMEDSEIKGEVLYLGYYQSAFDWDDETAKASKQHRLKRYHSQTYGNGSKCDLNGRPREAEVRFLCDEGAGISGDYIDRVDEPLSCSYVLTIRTPRLCPHPLLRPPPSAAPQAILCHPSLQPEEYMAYVQRQADSKQYGDKIIEELQDLGPQVWSETKSGVAPQKMAGASPTKDDSKDSDFWKMLNEPEDQAPGGEEVPAEEQDPSPEAADSASGAPNDFQNNVQVKVIRSPADLIRFIEELKGGTKKGKPNIGQEQPVDDAAEVPQREPEKERGDPERQREMEEEEDEDEDEDEDEDERQLLGEFEKELEGILLPSDRDRLRSEVKAGMERELENIIQETEKELDPDGLKKESERDRAMLALTSTLNKLIKRLEEKQSPELVKKHKKKRVVPKKPPPSPQPTEEDPEHRVRVRVTKLRLGGPNQDLTVLEMKRENPQLKQIEGLVKELLEREGLTAAGKIEIKIVRPWAEGTEEGARWLTDEDTRNLKEIFFNILVPGAEEAQKERQRQKELESNYRRVWGSPGGEGTGDLDEFDF
- percent reduction of binding against WT [2]: 90%
